Laboratory results taken from the supplement of paper PMC11865577.

Experiments:
Assay in all cases: pull-down binding Z-score (relative to library population); higher = stronger binding
[1] = system: TO-N3-2 (biotin conjugate); conditions: RNA library: Library-2
Procedure, shortened: (§1)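 Binding is given as a Z-score against the library mean and standard deviation, calculated after removing the beads-only signal and averaging barcoded replicate probes without their highest and lowest values. Cy5- or Cy3-end-labelled RNA library (1 μg) was heat-folded in phosphate/NaCl/KCl buffer and incubated 60 min at 25 °C with streptavidin beads bearing 100 pmol of biotin-conjugated small molecule. After three washes, RNA eluted in hot SDS was hybridised to a DNA barcode microarray for 20 h at 55.5 °C.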

[2] = system: G-clamp-N3 (biotin conjugate); conditions: RNA library: Library-1 (pre-miRNA loops + repeats)
Procedure, shortened: as §1

[3] = system: TO-3-N3 (biotin conjugate); conditions: RNA library: Library-2
Procedure, shortened: as §1

[4] = system: TO-3-N3-2 (biotin conjugate); conditions: RNA library: Library-2
Procedure, shortened: as §1

TO-N3 (biotin conjugate) = conditions: RNA library: Library-2
Procedure, shortened: as §1

Sequence | pull-down binding Z-score [1] | pull-down binding Z-score [2] | pull-down binding Z-score [3] | pull-down binding Z-score [4] | pull-down binding Z-score (TO-N3 (biotin conjugate))
UGAGUACAUUAUUUAUGAUUAAUCA [hsa-mir-376a-1] | -0.847 | -1.62 | -0.874 | -0.0505 | -0.978
GAAAUAGGCUGCGAAGAUAACAGUAUUUC [hsa-mir-3942] | -0.482 | 0.773 | -0.872 | -0.17 | -0.979
GGAGAUCGUACC [hsa-mir-4430] | -0.15 | -0.504 | -0.109 | -0.372 | -0.107
GGUUCUCAGUCAGAACC [hsa-mir-6813] | -1.21 | 0.755 | -0.0211 | -0.346 | -0.372
UCCACCCCCAGAGAAUCCCUAAACCGGGGGUGGA [hsa-mir-1289-1] | -0.449 | -1.69 | -0.51 | -0.243 | -0.645
GAGUGUAAUUACGUACAUGCAGUAGCUC [hsa-mir-618] | 0.152 | 0.413 | 0.405 | 0.182 | 0.341
AAUUGGCUUUUACAAAAGACCAACU [hsa-mir-4798] | -0.6 | 0.914 | 0.117 | -0.259 | 0.0359
GCUGCACUGUCUCCGUCUGCGG [hsa-mir-4519] | 1.43 | -0.081 | -0.24 | 0.0588 | 0.595
UUUGUCAUUAAAGUAAUGCAAA [hsa-mir-548m] | -0.856 | -0.115 | 0.175 | -0.211 | 0.0311
CCCUAGGACUUACUUGUGCAGGG [hsa-mir-4253] | -0.69 | -0.421 | -0.256 | -0.403 | -0.303
CCCAUAUAAUAUUAGGGG [hsa-mir-4483] | -0.667 | 2.5 | -0.469 | 0.176 | -0.783
AUUCUGGAGUCCAUCUAGAG [hsa-mir-1182] | -0.297 | -1.08 | -0.538 | -0.378 | -0.598
ACCACUGUGAAGACAGUAAAAUGUACAGUGGU [hsa-mir-597] | -1.1 | 0.0112 | -0.324 | -0.0901 | -0.598
GGAAGACACAUGAGCAGUGCCUCCACUUCACGCCUCUCCC [hsa-mir-6780b] | 0.746 | -1.13 | 0.265 | 0.0363 | 0.543
CUUUUAGAGUAAUUGUGAAACUGUUUUUCAAAG [hsa-mir-562] | -0.462 | 0.748 | -0.531 | -0.0695 | -0.769
GGGCAGGGAGUCAGAGGGGACCGCCC [hsa-mir-4740] | 1.24 | 2.09 | 2.19 | 1.93 | 1.98
CUGCAGUGAGCGAUCGGUGCUCUGGGG [hsa-mir-503] | 1.07 | 1.34 | 0.176 | 0.308 | 0.798
CAAAGACCAGAACUUAAUGGUCUCUG [hsa-mir-4490] | -1.15 | 0.704 | -0.471 | -0.671 | -0.888
GUUACUGUGGGAACUGGAGGUAAC [hsa-mir-132] | 0.708 | 2.34 | 0.839 | 0.489 | 1.1
